This is an account of results in patent publication US10994019B2, “Bicyclic peptide-toxin conjugates specific for MT1-MMP” (BicycleRD Limited, priority 2016, dated 2021).

Starred links: 1 amine or outer side, 2 acyl side, 3 side chain; linkers in the order of their positions; H or OH if unused. Positions of bridges follow the written chain, without caps; N, C: chain ends. Non-standard residues stand in square brackets, D forms with d. Residues, ends and D or L forms follow the SMILES beside them. *: point of attachment. X1 = COc1cc2cc(c1Cl)N(C)C(=O)C[C@H](OC(=O)[C@H](C)N(C)C(=O)CCSSC(C)(C)CCC(=O)*)[C@]1(C)O[C@H]1[C@H](C)[C@@H]1C[C@@](O)(NC(=O)O1)[C@H](OC)/C=C/C=C(\C)C2; 1Nal = N[C@@H](Cc1cccc2ccccc12)C(=O)O; TBMB = c1c(C[*:1])cc(C[*:3])cc1C[*:2]; Tle = CC(C)(C)[C@H](N)C(=O)O; βAla = NCCC(=O)O; Sar = CNCC(=O)O

Data set [1] relates to murine, dog, cynomolgus and human MT1-MMP. The data set is described as follows: Species cross-reactivity of peptide ligands. The format is binding.
The conditions of data set [2]: cited from earlier work; for reduction in sensitivity to a reducing agent such as dithiothreitol: in the antibody drug conjugate context; for Relative Stability to DTT (ADC): values relate to antibody drug conjugates containing the disulphide linker.
A short description of data set [3]: Plasma stability profiling, Method #2 (quantitative LC-MS), mouse plasma. The format is in vitro ADME. The following applies: incubation up to 24 hrs in plasma, 4 μM BDC, read-out: t1/2 (hrs) (mouse plasma) (converted). The procedure: (§1) To obtain plasma stability of bicyclic peptides quantitatively, peptide stock solutions (160 μM in DMSO) were mixed with plasma (human, rat or mouse), such that final concentrations were 4 μM, and incubated at 37° C. 40 μL samples were taken periodically up to 24 hrs and frozen at −80° C. Prior to LC-MS analysis, samples were defrosted, and mixed with 3 volumes (here, 120 μL) of 1 part water, 3 parts acetonitrile and 3 parts methanol. The milky suspensions were centrifuged for 40 min at 14000 rpm in a cooled centrifuge, and peptide-containing supernatants were quantitated for doubly/triply charged species and MS/MS fragments thereof using a Waters Xevo TQ-D instrument, while using a plasma extracted standard curve of the same peptides as a reference. The half-life of degradation in plasma was used to assess the comparative stability of the molecules.

For another data set, the system named is EBC-1 xenograft tumours. The experiment in a line: Efficacy in EBC-1 xenograft mice. The format is in vivo, Balb/c nude mice. The procedure:
(§2) Efficacy of BT17BDC-27 and BT17BDC-28 in EBC-1 Xenograft Mice.
(§3) Balb/c nude mice bearing subcutaneous EBC-1 xenograft tumours were treated with BDCs or vehicle. BDCs were dosed 3 times weekly for 2 weeks, dosing initiated when tumours measured approx. 150-200 mm^3. Mice were monitored, and measurements of tumour volume and body weight recorded 3 times a week.
Both BDCs were tested for their efficacies in in vivo mouse xenograft models, using the human lung squamous cell carcinoma line EBC-1.

Data set [4] is described as follows: Plasma stability profiling, Method #2 (quantitative LC-MS), rat plasma. The format is in vitro ADME. The following applies: incubation up to 24 hrs in plasma, 4 μM BDC, read-out: t1/2 (hrs) (rat plasma) (converted). The procedure:
as §1

Data set [5] can be described thus: Body weight during treatment of EBC-1 xenograft mice. The format is in vivo, Balb/c nude mice. The settings on record: 10 mg/kg. The procedure: FIG. 2: Body weight during treatment of EBC-1 xenograft mice with BT17BDC-27, which is indicative of drug-associated toxicology and overall animal health.
FIG. 4: Body weight during treatment of EBC-1 xenograft mice with BT17BDC-28, which is indicative of drug-associated toxicology and overall animal health.
as §2, §3

The nature of data set [6]: Plasma stability profiling, Method #2 (quantitative LC-MS), human plasma. The format is in vitro ADME. The following applies: incubation up to 24 hrs in plasma, 4 μM BDC, read-out: t1/2 (hrs) (human plasma) (converted). The procedure: as §1
Data set [7] in a line: Relative stability to DTT of Bicycle Drug Conjugates by quantitative LC-MS. The format is physicochemical. The following applies: compared to unhindered disulphide BDCs. The procedure:
Both BDC conjugate structures were assessed for several in vitro parameters such as retention of potency to the human MT1-MMP hemopexin domain, stability in mouse, rat and human plasma, and stability to reducing agents such as dithiothreitol.

Data set [8] relates to MMP-1, MMP-2, MMP-15 and MMP-16. The data set is described as follows: Selectivity for MT1-MMP over other MMPs. The format is binding.
The mark [9] stands for this setting: 10 mg/kg, dosed 3 times weekly for 2 weeks.

Regarding `C[C@H](N)C(=O)N[C@H]1CSCc2cc3cc(c2)CSC[C@H](NC(=O)[C@@H](C)NC(=O)[C@H](Cc2cccc4ccccc24)NC(=O)[C@H](CCC(=O)O)NC(=O)[C@H](CC(N)=O)NC(=O)[C@@H](C)NC1=O)C(=O)N[C@@H](CCC(=O)O)C(=O)N[C@@H](CC(=O)O)C(=O)N[C@@H](Cc1ccccc1)C(=O)N[C@@H](Cc1ccc(O)cc1)C(=O)N[C@@H](CC(=O)O)C(=O)N[C@@H](C(C)(C)C)C(=O)N[C@H](C(N)=O)CSC3` [17-69-07-N268, A-(17-69-07) D-Ala1 1Nal4 D-Ala5 tBuGly11] (H-AC[dA]NE[1Nal][dA]CEDFYD[Tle]C-NH2; linker 2-8-15 via TBMB), the “cross-reactivity with murine, dog, cynomolgus and human MT1-MMP” value in data set [1] is “fully cross reactive”.

For the compound `COc1cc2cc(c1Cl)N(C)C(=O)C[C@H](OC(=O)[C@H](C)N(C)C(=O)CCSSC(C)(C)CCC(=O)NCCC(=O)N(C)CC(=O)N(C)CC(=O)N(C)CC(=O)N(C)CC(=O)N(C)CC(=O)N(C)CC(=O)N(C)CC(=O)N(C)CC(=O)N(C)CC(=O)N(C)CC(=O)N[C@@H](C)C(=O)N[C@H]1CSCc3cc4cc(c3)CSC[C@H](NC(=O)[C@@H](C)NC(=O)[C@H](Cc3cccc5ccccc35)NC(=O)[C@H](CCC(=O)O)NC(=O)[C@H](CC(N)=O)NC(=O)[C@@H](C)NC1=O)C(=O)N[C@@H](CCC(=O)O)C(=O)N[C@@H](CC(=O)O)C(=O)N[C@@H](Cc1ccccc1)C(=O)N[C@@H](Cc1ccc(O)cc1)C(=O)N[C@@H](CC(=O)O)C(=O)N[C@@H](C(C)(C)C)C(=O)N[C@H](C(N)=O)CSC4)[C@]1(C)O[C@H]1[C@H](C)[C@@H]1C[C@@](O)(NC(=O)O1)[C@H](OC)/C=C/C=C(\C)C2` [BT17BDC-28] ({X1-βAla}-[Sar][Sar][Sar][Sar][Sar][Sar][Sar][Sar][Sar][Sar]AC[dA]NE[1Nal][dA]CEDFYD[Tle]C-NH2; linker 12-18-25 via TBMB), in data set [2], the “reduction in sensitivity to a reducing agent such as dithiothreitol” value is on record as 14 fold. For the same compound, in data set [2], the “Relative Stability to DTT (ADC)” value is given as 14. The half-life at 4 μM was 19 h in data set [3], 13 h in data set [4] and 29 h in data set [6]. The “effect on tumour growth” value in the data set on EBC-1 xenograft tumours (setting [9]) is listed as “tumour growth stasis but not active regression”. In data set [5], the body weight result is “no weight loss was observed”. In addition, in data set [7], the “Relative Stability to DTT (BDC)” value was found to be 28.

Regarding `C[C@H](NC(=O)CN(C)C(=O)CN(C)C(=O)CN(C)C(=O)CN(C)C(=O)CN(C)C(=O)CN(C)C(=O)CN(C)C(=O)CN(C)C(=O)CN(C)C(=O)CN(C)C(=O)CCN)C(=O)N[C@H]1CSCc2cc3cc(c2)CSC[C@H](NC(=O)[C@@H](C)NC(=O)[C@H](Cc2cccc4ccccc24)NC(=O)[C@H](CCC(=O)O)NC(=O)[C@H](CC(N)=O)NC(=O)[C@@H](C)NC1=O)C(=O)N[C@@H](CCC(=O)O)C(=O)N[C@@H](CC(=O)O)C(=O)N[C@@H](Cc1ccccc1)C(=O)N[C@@H](Cc1ccc(O)cc1)C(=O)N[C@@H](CC(=O)O)C(=O)N[C@@H](C(C)(C)C)C(=O)N[C@H](C(N)=O)CSC3` [17-69-07-N241, bAla-Sar10-A-(17-69-07) D-Ala1 1Nal4 D-Ala5 tBuGly11] (H-[βAla][Sar][Sar][Sar][Sar][Sar][Sar][Sar][Sar][Sar][Sar]AC[dA]NE[1Nal][dA]CEDFYD[Tle]C-NH2; linker 13-19-26 via TBMB), in data set [1], the “cross-reactivity with murine, dog, cynomolgus and human MT1-MMP” value is listed as “fully cross reactive”.

Take “-Ci-Y-N-E-F-G-Cii-E-D-F-Y-D-I-Ciii- [17-69-07]”: the “selectivity for MT1-MMP (no cross-reaction with MMP-1, MMP-2, MMP-15 and MMP-16)” value in data set [8] is listed as “uniquely selective for MT1-MMP”.

Regarding `COc1cc2cc(c1Cl)N(C)C(=O)C[C@H](OC(=O)[C@H](C)N(C)C(=O)CCSSC(C)(C)CCC(=O)N[C@@H](C)C(=O)N[C@H]1CSCc3cc4cc(c3)CSC[C@H](NC(=O)[C@@H](C)NC(=O)[C@H](Cc3cccc5ccccc35)NC(=O)[C@H](CCC(=O)O)NC(=O)[C@H](CC(N)=O)NC(=O)[C@@H](C)NC1=O)C(=O)N[C@@H](CCC(=O)O)C(=O)N[C@@H](CC(=O)O)C(=O)N[C@@H](Cc1ccccc1)C(=O)N[C@@H](Cc1ccc(O)cc1)C(=O)N[C@@H](CC(=O)O)C(=O)N[C@@H](C(C)(C)C)C(=O)N[C@H](C(N)=O)CSC4)[C@]1(C)O[C@H]1[C@H](C)[C@@H]1C[C@@](O)(NC(=O)O1)[C@H](OC)/C=C/C=C(\C)C2` [BT17BDC-27] (X1-AC[dA]NE[1Nal][dA]CEDFYD[Tle]C-NH2; linker 2-8-15 via TBMB), the “reduction in sensitivity to a reducing agent such as dithiothreitol” value in data set [2] is listed as 14 fold. Moreover, the “Relative Stability to DTT (ADC)” value in [2] was 14. Further, the values for the half-life at 4 μM in data set [3], in data set [4] and in data set [6] were 23 h, 9 h and 36 h, respectively. The cleared tumours within in the data set with EBC-1 xenograft tumours (setting [9]) is on record as ≤ 14 days. Further, the efficacy and tolerability entry in the data set with EBC-1 xenograft tumours (doses equal or lower than 5 mg/kg) was “appreciable efficacy and tolerability”. For the same compound, the body weight entry in data set [5] is “slight reduction in body weight”. Further, the “Relative Stability to DTT (BDC)” value in [7] turned out to be 32.
